Experiment [1] concerns the target actin fused with ALFA tag, expressed in XTC cells. The experiment is described as follows: single-molecule time-lapse imaging on fixed XTC cells expressing ALFA tag-fused actin; reference NbALFA WT.
Experiment [2] has as its target actin fused with FLAG tag, expressed in XTC cells. The experiment can be described thus: single-molecule time-lapse imaging on fixed XTC cells expressing tag-fused actin; reference 2H8 WT.
Experiment [3] has as its target actin fused with S tag, expressed in XTC cells. The experiment is described as follows: single-molecule time-lapse imaging on fixed XTC cells expressing tag-fused actin; reference S66B WT.
The target in experiment [4] is actin fused with TARGET tag, expressed in XTC cells. The experiment is described as follows: single-molecule time-lapse imaging on fixed XTC cells expressing tag-fused actin; reference P20.1 WT.
The target in experiment [5] is mCherry-Hommer1 overexpressed in CTC cells. The experiment can be described thus: single-molecule time-lapse imaging on fixed CTC cells overexpressing mCherry-Hommer1; reference HS69 WT.
For experiment [6], the target named is mCherry-VGLUT1 overexpressed in CTC cells. The experiment is described as follows: single-molecule time-lapse imaging on fixed CTC cells overexpressing mCherry-VGLUT1; reference NV-Nb9 WT.
Experiment [7] addresses actin fused with HA tag, expressed in XTC cells. The experiment can be described thus: single-molecule time-lapse imaging on fixed XTC cells expressing tag-fused actin; reference 12CA5 WT.

In experiment [1], “anti-ALFA tag nanobody clone NbALFA, mutant code H2 (V27G, T28A, Y37A, E53A, R60A, V99A) (VHH)” displayed a fold rise of the dissociation constant against WT of 1000 times. As for “anti-FLAG antibody clone 2H8, mutant code H1L3 (HS28A, LY96A), Fv-EGFP (from UniProt P01631 1-113)”, in experiment [2], the fold rise of the dissociation constant against WT was found to be 50 times. Take “anti-S tag antibody clone S66B, mutant code H1L0 (HS28A), Fv-EGFP (from UniProt P03976 1-113)”: the fold rise of the dissociation constant against WT in experiment [3] was 2 times. As for “anti-TARGET tag antibody clone P20.1, mutant code H1L0 (HY59G), Fv-EGFP (from UniProt P01724 22-129)”, the fold rise of the dissociation constant against WT in experiment [4] came out at 10 times.

B1: anti-Homer nanobody clone HS69, mutant code H3 (S27G, T28A, F37A, Y59A) (VHH)
VHH: QVKLQESGGRLVQAGGSLRLSCTASGGAFSNSAMGWARQAPGKQRELVASIANEGQFTNAAASVKGRFTISRDNTKNVLFLQMNSLKPEDTAVYYCKLYSGRIGSSDVWGQGTQVTVSS
For B1, in experiment [5], the fold rise of the dissociation constant against WT was 100 times.

B2: anti-VGLUT nanobody clone NV-Nb9, mutant code H4 (R27G, T28A, Y32A, F37A, Y102A) (VHH)
VHH: QVQLQESGGGLVQAGDSLRLSCAASGGAWSIAGMGWARQAPGKEREFVAGITWRGGNTHYADFVKGRFTISRDNVKNTVYLQMNSLKPEDTAVYYCAANPNPSGSSVYRRNDAWGQGTQVTVSS
In experiment [6], B2 showed a fold rise of the dissociation constant against WT of 50 times.

B3: anti-HA tag antibody clone 12CA5, mutant code H6L2 (HT28A, HY32A, LY49A), Fv-EGFP (protein)
heavy: EVKLVESGGDLVKPGGSLKLSCAASGFAFSSAGMSWVRQTPDKRLEWVATISRGGSYTYYPDSVKGRFTISRDNAKNTLYLQMSSLKSEDTAMYYCARRETYDEKGFAYWGQGTTVTVSS
light: DIELTQSPSSLTVTAGEKVTMSCKSSQSLLNSGNQKNYLTWYQQKPGQPPKLLIAWASTRESGVPDRFTGSGSGRDFTLTISSVQAEDLAVYYCQNDNSHPLTFGAGTKLELKA
B3 registered a fold rise of the dissociation constant against WT in experiment [7] of 100 times.

These data come from patent WO2024034543A1.
